Assay: label from the status in PepcDB records
For “MLIFGFIGLFFLNIFSLHAQGIVTNKDAQEEFKWALNSYNNGIYDDALLSFKKILSFDPNNLDYHFWTGNVYYRLGYVEEALMEWRNLKDQGYKVPYLRHLISTIEQRRGIFSNYELNFKKLVKVASLDNSIYKRPHGYQITSLRADKYGGYYAANFVGNEILYFDVNNNVNALVKDGFSYLKSPYDVIEANNLLYVTLYSSDEIGVYDKVLGVKRKSIGNKGTKDGELLAPQYMAIDKRNYIYVSEWGNKRVSKFGLEGDFILHFGSRTSGYKGLLGPTGVTYLNENIYVADSLRNTIEVFDTSGNHLYSVFTSIEGIEGLSSDFVGNNVIVSSKDGVYKYSIAKKTITKILKADKMNSKISSSILDANNQMIVSDFNNAKVSVYKSDASLYDSLNVDVRRIIRLGGPKIYVELNVSSKSGLPVVGLKSENFSISNENYYIVNPKVAYNVNASKDINIAVVFDKSSYMKKYDTDQIVGLNALMELSKNKNFSFINATSVPIIDNIESLTNSIRNTSSLGPYSTDAVKTDVSLKLAGSGLMSKSSRRAVVYFSGGILNRKAFEKYSLDTIVSYYKNNDIRFYLILFGNDPINSKLQYLVNETGGAVIPFSSYEGVSKVYDLILEQKTGTYLLEYYYPGPQEPNKYFNLSVEANINQQTGRGEFAYFIN”, the protein production was “failed”. With “MLINKTKRAEQNLNNLPFLALQAEQIEFLGSSAEFKTQIIELIRNAKKRIYVTALYWQKDEAGQEILDEIYRVKQENPHLDVKVLIDWHRAQRNLLGAEKSATNADWYCEQRQTYQLPDDPNMFFGVPINTREVFGVLHVKGFVFDDTVLYSGASINNVYLHQFEKYRYDRYQKITHAELADSMVNFINDYLLDFSAVYPLDVTNRPRTKEIRGNIRAYRKDLAQNGEYSLKSAVKLPNVLSVSPLFGLGASGNELNQVIEDLFLQVQKKLVICTPYFNFPRTLQHKIATLLENGKRVEIIVGDKVANDFYIPPEQPFKMAGALPYLYESNLRRFCEKFETQIESGQLVVRLWRDGDNTYHLKGVWVDDRYILLTGNNLNPRAWRLDAENGLLIYDPQQQLLAQVEKEQNQIRQHTKVLKHYTELEELNQYPEPVQKLLKKFARIKADKLVKMILLEHHHHHH” the protein production was “not failed”. In the case of “MLISHSDLNQQLKSAGIGFNATELHGFLSGLLCGGLKDQSWLPLLYQFSNDNHAYPTGLVQPVTELYEQISQTLSDVEGFTFELGLTEDENVFTQADSLSDWANQFLLGIGLAQPELAKEKGEIGEAVDDLQDICQLGYDEDDNEEELAEALEEIIEYVRTIAMLFYSHFNEGEIESKPVLH”, the protein production is reported as “not failed”. For “MLKFPLCCSELSLEPKILAFESQLVSGRRDTIKVSAGKIGNFSLGSIFKSCETCGAKGAIECPGCKGTGKNKKNGNMFERWKCFDCQGFGMKSCPKCGKGGLTPEQRGER”, the protein production was “failed”. With “MLKGIPKIIPPELLKVLCEMGHGDQLVIADGNFPAESIGKNAIVVRMDGHGGGEILKAILTVFPLDTYVDKPATLMEKVPGDTVATPIWDVYAGLIKEHDERGADAIGSLERFAFYEQAKNAYCVIASGESAQYANLILQKGVVFNAE” the protein production was “not failed”. In the case of “MLKHFGSKVRNLRVTRNITREDFCGDETELSVRQLARIESGQSIPNLTKAHYIAKQLNVKLDILTGGESLELPKRYKELKYLILRIPTYADAERLKLRECQFDHIFEEFYDNLPEDECLAIDSLQAKFEVYQTGDINFGVEVLCECFDKVKYKEKYTLNDLIIIDLFLTCAVVSKFNNRAFTKEVFQTICKTLISQNHKLTAEDLFWFNHVLLNCVFVGLCLNSEECLAEMLEVSRQTMVSTHDFHKMPLYFMYQWKYFITIDNDIKSAENAYQQSIMFSKMIDDKHLIKKLELEWQEDITGH”, the protein production is reported as “failed”. With “MLKKLIEKVKSLTSVIKIVFFISVLVLIIVEMIHLKRTISVEQLKSVFGQLSPMNLFLIILVGVIAVLPTTGYDFVLNGLLRTDKSKRYILQTSWCINTFNNLSGFGGLIDIGLRMAFYGKKGQEKSDLREVTRFLPYLISGLSFISVIALIMSHIFHAKASVDYYYLVLIGASMYFPVIYWISGHKGSHYFGDMPSSTRIKLGVVSFFEWGCAAAAFIIIGYLMGIHLPVYKILPLFCIGCAVGIVSLIPGGLGSFELVLFTGFAAEGLPKETVVAWLLLYRLAYYIIPFFAGIYFFIHYLGSQINQRYENVPKELVSTVLQTMVSHLMRILGAFLIFSTAFFENITYIMWLQKLGLDPLQEQMLWQFPGLLLGVCFILLARTIDQKVKNAFPIAIIWITLTLFYLNLGHISWRLSFWFILLLLGLLVIKPTLYKKQFIYSWEERIKDGIIIVSLMGVLFYIAGLLFPIRAHITGGSIERLHYIIAWEPIALATLILTLVYLCLVKILQGKSCQIGDVFNVDRYKKLLQAYGGSSDSGLAFLNDKRLYWYQKNGEDCVAFQFVIVNNKCLIMGEPAGDDTYIREAIESFIDDADKLDYDLVFYSIGQKLTLLLHEYGFDFMKVGEDALVNLETFTLKGNKYKPFRNALNRVEKDGFYFEVVQSPHSQELLNSLEEISNTWLEGRPEKGFSLGYFNKDYFQQAPIALVKNAEHEVVAFANIMPNYEKSIISIDLMRHDKQKIPNGVMDFLFLSLFSYYQEKGYHYFDLGMAPLSGVGRVETSFAKERMAYLVYHFGSHFYSFNGLHKYKKKFTPLWSERYISCSRSSWLICAICALLMEDSKIKIVK” the protein production was “failed”. For “MLKKLLLVSTVLLLSACSSRQYSESSLTQSKIDIYEQTQNYVALSDLYKAELKKEDSEEIREALAAALLHLEDPESALFYLKPNIENGASFQSYYLQASALGDLGKYPQAIKAALLSLEENPDNPETENLLGILYGHEYQYEKSRRYFQKAQLHFYDSNTIANNLAVLDIAEGNYKRAAQRLLPVYRSGQANEQVMANLILSMAKEQNLEFIQAVLGDKHTKKEIERIYQSLQRFNSLDIDTKKSV”, the protein production was “failed”. With “MLKLHLSEEERVIFASNLVASKKRFTKMEKGRFGNFLDNAKIISHIINPCLYDVEDATGYFLYSFTLNDERPK” the protein production was “failed”. With “MLKLSCNVTDHIHNLFSNSRRIFVPVHRQTRPISCFQLKKEPLRAILSADHGNSSVRVADTVSGTSPADRLRFGRLMEDGFSYKEKFIVRSYEVGINKTATIETIANLLQEVACNHVQNVGFSTDGFATTLTMRKLHLIWVTARMHIEIYKYPAWSDVVEIETWCQSEGRIGTRRDWILKDCATGEVIGRATSKWVMMNQDTRRLQRVTDEVRDEYLVFCPPEPRLAFPEENNSSLKKIPKLEDPAQYSMLGLKPRRADLDMNQHVNNVTYIGWVLESIPQEIIDTHELKVITLDYRRECQQDDIVDSLTTSETPNEVVSKLTGTNGSTTSSKREHNESHFLHILRLSENGQEINRGRTQWRKKSSR” the protein production was “failed”. In the case of “MLKSKRKEIILSRLEQNKSVTLDELTSILETSESTVRRDLDELESAGFLKRVHGGAELPYSLGQELSNQEKAIKNVQKKLDIARQTAKLIAKQDVIFIDAGTTTELLIDFLPHEQLTVVTNSIHHAAKLVDRGIKTIIIGGAVKHSTDASIGQVAINQIRQITVDKAFLGMNGIDEVYLTTPDLEEAAIKEAIINNSQQTFILMDSSKIGQVTFAKVKEINDINLVTNKTDSELMTIIKEKMKVIQV”, the protein production is reported as “failed”. For “MLKTPSDAAVAGCLSLLLEVSGNPKAGNVDREHDFDDLKFEHFLASAAGAFPAFLEVAEKRIIGEGVLRAVKESMRWHRAENVHFGAFLLLVPLISSWDAG”, the protein production was “not failed”. In the case of “MLKTYQKLLAMGIFLIVLCSGNAAFAATNQVGGLSNVGFFHDYLIEPFSALLKGVAGLFHGEYGLSIILVTIIVRIVVLPLFVNQFKKQRIFQEKMAVIKPQVDSIQVKLKKTKDPEKQKELQMEMMKLYQEHNINPLAMGCLPMLIQSPIMIGLYYAIRSTPEIASHSFLWFSLGQSDILMSLSAGIMYFVQAYIAQKLSAKYSAVPQNPAAQQSAKLMVFIFPVMMTIFSLNVPAALPLYWFTSGLFLTVQNIVLQMTHHKSKKTAALTESVK”, the protein production is reported as “failed”. In the case of “MLLAMALLIIGLLLVAYGADRLVFAASILCRTFGIPPLIIGMTVVSIGTSLPEIIVSAAASLHGQLDLAVGAALGSNITNILLILGLAALVRPFTVHSDVLRRELPLMLFVSVVAGSVLHDGQLSRSDGIFLLLLAVLWLLFIVKIARLAERQGNDSLTREQLAELPREGGLPVAFLWLGIALVIMPMATRMVIDNATVLANYFAMSELTLGLTVIAVGTSLPELATAIAGVRKGENDIAVGNLIGANIFNLAIVLGLPALIAPGEINPLAFGRDYSVMLLVSVVFALLCWRHPRQIGRGAGILLTGGFIVWLAMLYWLSPLLVG”, the protein production is reported as “failed”. With “MLLENFYKIIHIKEREDGKQEIEIELNPGHVLYQGHFPGQPVVPGVCTLQIIKESAEQIASQPLQYVQIASSKFLSAINPLETPLLQLFIRLEKTEEHLFKLQAEGICNGKEFIKLKAVLMASKYQLEHHHHHH” the protein production was “not failed”.

Reference: a protein production outcome set (Wang et al. 2014)
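Note: failed if final PepcDB status was selected cloned or expressed and not failed if soluble or beyond.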
